These results are taken from US20090232804A1 (GLENMARK PHARMACEUTICALS S A, published 2009).

In test [1] the target is purified human von Willebrand factor (vWF) (human) (UniProt P04275). Put plainly: cell-based or functional assay.
Test [2] concerns the target His tagged A1 domain of human von Willebrand factor (residues 499-729), expressed in E. coli (human) (UniProt P04275). Put plainly: DELFIA competitive binding format (time-resolved fluorescence): Eu-NMC-4 chimera at 100 pM on wells coated with His-hA1, unlabelled AJW200 varied; EC50 of the enhancement of Eu-NMC-4 binding.
The target is the same in test [3]. Put plainly: competition with 100 pM Eu-NMC-4 chimera on plate-coated human His-A1, DELFIA, Cheng-Prusoff.
Test [4] shares this target. Put plainly: calculated from koff, DELFIA kinetics on plate-coated His-A1, 37 °C.
The target is the same in test [5]. The test is described as follows: ratio of the kinetic constants (row printed as 'kon/koff'), DELFIA, 37 °C.
Test [6] shares this target. Put plainly: homologous competition with Eu-NMC-4 chimera on plate-coated His-A1, DELFIA, Cheng-Prusoff, n = 4.
For test [7] the target is unchanged. Put plainly: equilibrium binding (Scatchard), Eu-labelled antibody on direct-coated His-A1, DELFIA, 37 °C, n = 10.
Test [8] has the same target. Put plainly: homologous competition with 100 pM Eu-NMC-4 chimera on plate-coated human His-A1, DELFIA, Cheng-Prusoff.
Test [9] has the same target. The test is described as follows: DELFIA competitive binding (time-resolved fluorescence): Eu-NMC-4 chimera at 100 pM on wells coated with His-hA1, unlabelled competitor antibody varied (homologous competition).
Test [10] deals with T1, His tagged A1 domain of rat von Willebrand factor, expressed in E. coli (rat, UniProt Q62935 13-256).
T1 construct: domain: A1 domain; also called His-A1 (rat); His-rA1; not shown: His tag from the pETDuet-1 vector
Put plainly: calculated from koff, DELFIA kinetics on plate-coated His-A1, 37 °C.

The target in test [11] is T1, His tagged A1 domain of rat von …. The test is described as follows: ratio of the kinetic constants (row printed as 'kon/koff'), DELFIA, 37 °C.
Test [12] shares this target. The test is described as follows: DELFIA association kinetics, Eu-labelled antibody on plate-coated His-A1, 37 °C.
For test [13] the target is unchanged. Put plainly: equilibrium binding (Scatchard), Eu-labelled antibody on direct-coated His-A1, DELFIA, 37 °C, n = 5.
Method: Equilibrium binding assays are performed as follows. Eu-antibody is pre-diluted into Binding Buffer (e.g., Wash buffer containing 100 μg/ml IgG-free BSA and 0.1% sodium azide) and applied to wells (e.g., 10 μl/well) of a 96-well plate and the plates sealed with SEALPLATE film. The plates are shaken (e.g., Titer Plate Shaker speed setting of 4 for ≧15 sec or 60 sec at RT), placed into nalgene boxes containing wet paper towels, and incubated in the closed boxes for 2 hours at 37° C. For the measurement of free label, supernatant samples (4.0 μl) are transferred from the wells containing binding mixtures into a parallel set of wells containing DELFIA Enhancement Solution (100 μl/well). To assess bound antibody, the A1-coated wells with the remaining binding mixtures are washed five times with Wash Buffer, tapped dry onto paper towels and DELFIA Enhancement Solution (100 μl/well) added to the empty wells for the measurement of bound label. For assay calibration, DELFIA Enhancement Solution (100 μl/well) is added to unused wells and Europium Standard (1.0 μl/well) is added. The plates are shaken (e.g., Titer Plate Shaker speed setting of 5 for 10 minutes at room temperature), and time-resolved fluorescent (TRF) intensities are read using a Victor2 multi-label plate reader (Perkin-Elmer Wallac, Boston, Mass.). […]
For test [14] the target is unchanged. Put plainly: homologous competition with Eu-NMC-4 chimera on plate-coated rat His-A1, DELFIA, Cheng-Prusoff, n = 3.
Method: Wells of Immulon-4 plates are coated with His-A1 domain of vWF from human (e.g., 25 ng in 100 μl/well in 30 mM Tris, pH 7.4 and 300 mM NaCl or divalent cation-free PBS) or rat (e.g., 50 ng/well) by incubating overnight at 4° C. The plates are washed three times with Wash Buffer (e.g., 50 mM HEPES, pH 7.4, 150 mM NaCl, 0.5% Tween-20), blocked with 300 μl/well Blocking Buffer (e.g., Wash Buffer containing 3.0 mg/ml IgG-free BSA and 0.1% sodium azide) for 1 hour at room temperature and washed 5 times with Wash Buffer before use.
Competitive binding studies may be performed to determine Ki values (e.g., a measure of relative affinity for antigen). […] The final concentration of europium-labeled antibody is 100 pM.

By EC50 (read off the curve) is commonly meant the concentration needed to bring the measured effect to its halfway point. Molecule “AJW200 reference antibody (anti-vWF A1 domain, cloned with human IgG1(dm) constant region)” returned an EC50, ristocetin-induced platelet agglutination assay in test [1] of 0.27 nM. Besides, in test [2], the EC50 (read off the curve) stood at 0.2 nM.
For orientation: Ki means a dissociation constant, usually derived from enzyme kinetics or from competition with a known ligand. A high value points to a looser hold on the target. In test [3], “NMC-4 monoclonal antibody (murine anti-vWF antibody, IgG1κ)” gave a Ki of 0.6 nM.
One may read the Kd as the free concentration of one partner at which half of the binding sites on the other are occupied at equilibrium, for simple one-to-one binding. As to “NMC-4-human Fc chimera (NMC-4 variable regions on human IgG1(dm) and human kappa constant regions) (antibody)”, the Dissociation half-life in test [4] is 44 min. The dissociation constant Kd in [5] stood at 0.39 nM; in [7], 0.316 nM. Moreover, the Ki in [6] was determined as 0.275 nM; in test [8], 0.28 nM. In addition, the IC50 (read off the curve) in test [9] was 0.6 nM.

B1: NMC-4-human Fc chimera (NMC-4 variable regions on human IgG1(dm) and human kappa constant regions) (antibody, V domains shown)
VH: QVQLKESGPGLVAPSQSLSITCTVSGFSLTDYGVDWVRQPPGKGLEWLGMIWGDGSTDYNSALKSRLSITKDNSKSQVFLKMNSLQTDDTARYYCVRDPADYGNYDYALDYWGQGTSVTVSS
VL: DIQMTQSPSSLSASLGDRVTISCSASQDINKYLNWYQQKPDGAVKLLIFYTSSLHSGVPSRFSGSGSGTDYSLTISNLEPEDIATYYCQQYEKLPWTFGGGTKLEVK
notes: Heavy constant region is human IgG1 with L235E, E318A, K320A, K332A (IgG1(dm)); also called NMC-4 chimera; NMC4 chimera
In general, kon refers to the rate constant with which the complex forms. A higher kon goes with faster complex formation. Consider B1, for which, in test [10], the Dissociation half-life is 69 min. Further, the dissociation constant (Kd) in [11] was 0.7 nM; in test [13], 0.276 nM. The same molecule had a kon in [12] of 233000 M⁻¹ s⁻¹. The Ki in test [14] worked out at 0.297 nM.
